In publication PMC11998487 (2025):

Target: T1, EV71-VP1-His (enterovirus 71 (EV71), UniProt Q66478 566-862, RED-tris-NTA dye on the His tag (in the MST only))
T1 chain: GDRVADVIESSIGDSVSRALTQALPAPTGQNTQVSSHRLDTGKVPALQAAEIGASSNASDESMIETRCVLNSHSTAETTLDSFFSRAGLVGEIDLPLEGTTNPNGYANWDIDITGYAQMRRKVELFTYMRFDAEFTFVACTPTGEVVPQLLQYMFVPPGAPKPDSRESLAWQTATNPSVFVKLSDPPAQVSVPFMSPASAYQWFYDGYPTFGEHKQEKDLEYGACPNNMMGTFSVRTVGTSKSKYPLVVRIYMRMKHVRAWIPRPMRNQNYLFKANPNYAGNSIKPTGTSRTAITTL
Experiment: MST

B1: ZYG11B 1–58-GST (domain or fragment)
chain: MPEDQAGAAMEEASPYSLLDICLNFLTTHLEKFCSARQDGTLCLQEPGVFPQEVADRL
- Kd: 5.55 µM
